Data taken from patent US20110118447A1.
Changes are numbered by the printed parent chain. Numbers in names are those of the source.

B1: C5A (XPA23) VL S50Q (antibody, V domains shown)
VH: EVQLLESGGGLVQPGGSLRLSCAASGFTFSKYFMFWVRQAPGKGLEWVSVISPSGGMTRYADSVKGRFTISRDNSKNTLYLQMNSLRAEDTAVYYCARVGYGGNSDYWGQGTLVTVSS
VL: DIQMTQSPSSVSASVGDRLTIICRASQDINRWLAWYQQTPGNAPKLLIHQATSLQSGVPSRFSGSGSGTDFTLTINSLQPEDFATYYCQQADSFPLTFGGGTKVEIK
B2: C5A (XPA23) VL S50Y (antibody, V domains shown)
VH: B1 VH
VL: B1 VL with Q50Y
B3: C5A (XPA23) VL A51D (antibody, V domains shown)
VH: B1 VH
VL: B1 VL with Q50S, A51D
B4: C5A (XPA23) VL A51E (antibody, V domains shown)
VH: B1 VH
VL: B1 VL with Q50S, A51E
B5: C5A (XPA23) VL A51H (antibody, V domains shown)
VH: B1 VH
VL: B1 VL with Q50S, A51H
B6: C5A (XPA23) VL A51R (antibody, V domains shown)
VH: B1 VH
VL: B1 VL with Q50S, A51R
B7: C5A (XPA23) VL A51S (antibody, V domains shown)
VH: B1 VH
VL: B1 VL with Q50S, A51S
B8: C5A (XPA23) VL A51T (antibody, V domains shown)
VH: B1 VH
VL: B1 VL with Q50S, A51T
B9: C5A (XPA23) VL A51N (antibody, V domains shown)
VH: B1 VH
VL: B1 VL with Q50S, A51N
B10: C5A (XPA23) VL A51Q (antibody, V domains shown)
VH: B1 VH
VL: B1 VL with Q50S, A51Q
B11: C5A (XPA23) VL A51Y (antibody, V domains shown)
VH: B1 VH
VL: B1 VL with Q50S, A51Y
B12: C5A (XPA23) VL T52D (antibody, V domains shown)
VH: B1 VH
VL: B1 VL with Q50S, T52D
B13: C5A (XPA23) VL T52E (antibody, V domains shown)
VH: B1 VH
VL: B1 VL with Q50S, T52E
B14: C5A (XPA23) VL T52K (antibody, V domains shown)
VH: B1 VH
VL: B1 VL with Q50S, T52K
B15: C5A (XPA23) VL T52H (antibody, V domains shown)
VH: B1 VH
VL: B1 VL with Q50S, T52H
B16: C5A (XPA23) VL T52R (antibody, V domains shown)
VH: B1 VH
VL: B1 VL with Q50S, T52R
B17: C5A (XPA23) VL T52S (antibody, V domains shown)
VH: B1 VH
VL: B1 VL with Q50S, T52S
B18: C5A (XPA23) VL T52N (antibody, V domains shown)
VH: B1 VH
VL: B1 VL with Q50S, T52N
B19: C5A (XPA23) VL T52Q (antibody, V domains shown)
VH: B1 VH
VL: B1 VL with Q50S, T52Q
B20: C5A (XPA23) VL T52Y (antibody, V domains shown)
VH: B1 VH
VL: B1 VL with Q50S, T52Y
B21: C5A (XPA23) VL S53E (antibody, V domains shown)
VH: B1 VH
VL: B1 VL with Q50S, S53E
B22: C5A (XPA23) VL S53K (antibody, V domains shown)
VH: B1 VH
VL: B1 VL with Q50S, S53K
B23: C5A (XPA23) VL S53R (antibody, V domains shown)
VH: B1 VH
VL: B1 VL with Q50S, S53R
B24: C5A (XPA23) VL S53T (antibody, V domains shown)
VH: B1 VH
VL: B1 VL with Q50S, S53T
B25: C5A (XPA23) VL S53N (antibody, V domains shown)
VH: B1 VH
VL: B1 VL with Q50S, S53N
B26: C5A (XPA23) VL S53Q (antibody, V domains shown)
VH: B1 VH
VL: B1 VL with Q50S, S53Q
B27: C5A (XPA23) VL S53Y (antibody, V domains shown)
VH: B1 VH
VL: B1 VL with Q50S, S53Y
B28: C5A (XPA23) VL A91D (antibody, V domains shown)
VH: B1 VH
VL: B1 VL with Q50S, A91D
B29: C5A (XPA23) VL A91E (antibody, V domains shown)
VH: B1 VH
VL: B1 VL with Q50S, A91E
B30: C5A (XPA23) VL A91H (antibody, V domains shown)
VH: B1 VH
VL: B1 VL with Q50S, A91H
B31: C5A (XPA23) VL A91S (antibody, V domains shown)
VH: B1 VH
VL: B1 VL with Q50S, A91S
B32: C5A (XPA23) VL A91T (antibody, V domains shown)
VH: B1 VH
VL: B1 VL with Q50S, A91T
B33: C5A (XPA23) VL A91N (antibody, V domains shown)
VH: B1 VH
VL: B1 VL with Q50S, A91N
B34: C5A (XPA23) VL D92E (antibody, V domains shown)
VH: B1 VH
VL: B1 VL with Q50S, D92E
B35: C5A (XPA23) VL D92K (antibody, V domains shown)
VH: B1 VH
VL: B1 VL with Q50S, D92K
B36: C5A (XPA23) VL D92H (antibody, V domains shown)
VH: B1 VH
VL: B1 VL with Q50S, D92H
B37: C5A (XPA23) VL D92S (antibody, V domains shown)
VH: B1 VH
VL: B1 VL with Q50S, D92S
B38: C5A (XPA23) VL D92T (antibody, V domains shown)
VH: B1 VH
VL: B1 VL with Q50S, D92T
B39: C5A (XPA23) VL D92N (antibody, V domains shown)
VH: B1 VH
VL: B1 VL with Q50S, D92N
B40: C5A (XPA23) VL D92Q (antibody, V domains shown)
VH: B1 VH
VL: B1 VL with Q50S, D92Q
B41: C5A (XPA23) VL S93D (antibody, V domains shown)
VH: B1 VH
VL: B1 VL with Q50S, S93D
B42: C5A (XPA23) VL S93E (antibody, V domains shown)
VH: B1 VH
VL: B1 VL with Q50S, S93E
B43: C5A (XPA23) VL S93K (antibody, V domains shown)
VH: B1 VH
VL: B1 VL with Q50S, S93K
B44: C5A (XPA23) VL S93H (antibody, V domains shown)
VH: B1 VH
VL: B1 VL with Q50S, S93H
B45: C5A (XPA23) VL S93R (antibody, V domains shown)
VH: B1 VH
VL: B1 VL with Q50S, S93R
B46: C5A (XPA23) VL S93T (antibody, V domains shown)
VH: B1 VH
VL: B1 VL with Q50S, S93T

The binders below were run against binding partner of C5A (XPA23) (assay: Biacore K-off).

| Binder | fold difference in affinity vs original [fold] |
| --- | --- |
| B1 | 0.21 |
| B2 | 0.05 |
| B3 | 0.13 |
| B4 | 0.29 |
| B5 | 0.61 |
| B6 | 0.18 |
| B7 | 0.95 |
| B8 | 0.76 |
| B9 | 0.3 |
| B10 | 0.24 |
| B11 | 0.45 |
| B12 | 0.72 |
| B13 | 0.61 |
| B14 | 3.23 |
| B15 | 0.91 |
| B16 | 3.37 |
| B17 | 0.78 |
| B18 | 0.83 |
| B19 | 0.83 |
| B20 | 1.01 |
| B21 | 1.13 |
| B22 | 4.07 |
| B23 | 3.29 |

| Binder | fold difference in affinity vs original [fold] |
| --- | --- |
| B24 | 0.95 |
| B25 | 1.23 |
| B26 | 1.09 |
| B27 | 1.23 |
| B28 | 1.08 |
| B29 | 0.1 |
| B30 | 1.12 |
| B31 | 0.9 |
| B32 | 0.67 |
| B33 | 0.1 |
| B34 | 0.99 |
| B35 | 0.23 |
| B36 | 0.63 |
| B37 | 6.59 |
| B38 | 0.34 |
| B39 | 0.67 |
| B40 | 0.56 |
| B41 | 4.59 |
| B42 | 3.71 |
| B43 | 0.86 |
| B44 | 1.08 |
| B45 | 0.91 |
| B46 | 1.47 |
